Laboratory results reported in US20050058643A1 (APITOPE TECHNOLOGY BRISTOL, published 2005).

Molecular target: T1, HLA:DR2 (DRB1*1501) MHC Class II molecule (human)
T1 construct: whole, on cells
Test: conclusion drawn from presentation and tolerance experiments (fixed HLA-DR2+ APC; HLA:DR2 transgenic mice); no direct binding assay

GFKGVDAQGTLSKIF (also called APITOPE-MS-6) [MBP peptide 140-154]: binds.
